Reference: the supplement of paper PMC10065799, “High-throughput profiling of sequence recognition by tyrosine kinases and SH2 domains using bacterial peptide display” (eLife, 2023)

Each sequence was assayed against Hck (UniProt P08631) (assay: phosphorylation enrichment, bacterial display (enrichment ratio); higher = better substrate or ligand; peptides without Tyr show the background).
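Note: 11-residue human phosphosite peptides and single-mutation variants displayed on the E. coli surface, counted by deep sequencing, each peptide's frequency after selection divided by its frequency in the unselected input library; frequency after pTyr selection over input frequency; kinase dosed for 20-30% of maximal phosphorylation in three min.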

Sequence of Hck (P08631 whole entry, looked up): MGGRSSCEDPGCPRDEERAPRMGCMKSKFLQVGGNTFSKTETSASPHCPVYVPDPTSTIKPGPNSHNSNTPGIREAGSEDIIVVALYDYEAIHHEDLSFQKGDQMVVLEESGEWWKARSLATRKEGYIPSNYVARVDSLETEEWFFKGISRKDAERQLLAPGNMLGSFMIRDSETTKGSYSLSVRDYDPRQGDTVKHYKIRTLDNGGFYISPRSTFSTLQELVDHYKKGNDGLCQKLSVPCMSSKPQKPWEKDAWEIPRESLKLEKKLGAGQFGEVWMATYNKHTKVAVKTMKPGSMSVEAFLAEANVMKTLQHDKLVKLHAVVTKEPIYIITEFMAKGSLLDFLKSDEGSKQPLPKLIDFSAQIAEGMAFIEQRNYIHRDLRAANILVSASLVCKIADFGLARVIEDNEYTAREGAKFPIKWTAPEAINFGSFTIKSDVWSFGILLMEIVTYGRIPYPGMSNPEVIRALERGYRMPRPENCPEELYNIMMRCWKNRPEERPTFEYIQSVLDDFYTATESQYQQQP

Sequence	phosphorylation enrichment
TFMKQYPKVFL [CNBD1_Y70]	0.473
VDTRAYLTSAT [MT-CO1_Y304_F305L]	0.377
MVTSGYKAKMI [EFR3A_Y447_T451M]	0.39
VTQEPYELFCE [CBL_Y368_Q367P_YF]	0.569
DFLSSYSAVKQ [OAT_Y85_N89K]	0.429
PKGIGYGQGAG [CSRP3_Y73]	0.4
TFEFKYPEGSS [TGM4_Y440_YF]	0.617
RAMRRYLERGE [ERBB3_Y680]	0.711
LAAAKYKLNVD [SMARCA2_Y1190]	0.181
AVAFVYFKSIG [ADGRL4_Y301_YF]	0.626
VPANRYDLLRL [FARSB_Y72_C76R]	0.429
TAGEPYHDIRF [BAP1_Y223]	0.489
EFGSGYPNDPK [RNASEH2A_Y210_D205E_YF]	0.503
EGLRRYLENGK [HLA-A_Y195_W191G]	0.398
GVPLGYPIKAP [ELN_Y206]	0.388
FETDFYQKGGK [INSR_Y1190_R1191Q_YF]	0.472
QTEAEYRFIYM [PTPN11_Y511_Q510E]	0.886
PGDGEYFTLQI [TP53_Y327_L323G]	1.95
PSPTKYSLSPS [RANBP2_Y785_R784K]	0.354
VAHAVYQAVLS [SMG1_Y549]	8.28
FFDANYDGKEF [MAPRE2_Y162_YF]	0.601
GADDSYFTARS [ZAP70_Y492_YF]	0.444
DTFDPYLDIAL [USP36_Y268_V271I_YF]	0.577
KLVQLYGVCTK [BTK_Y461]	1.91
FADPFYDFEIE [ZC3H18_Y372_YF]	0.674
EVVGRYSGHNA [MLH1_Y183_V185G]	0.403
EEKKKYFDTKI [CASP5_Y103_YF]	0.559
MDDDQYALLTT [EFCAB6_Y675]	0.956
NGTVTYAIIAG [CDH23_Y1672_V1675I]	1.31

These sequences were tested against Jak2 (UniProt O60674) in the same assay as above.
Sequence of Jak2 (O60674 whole entry, looked up): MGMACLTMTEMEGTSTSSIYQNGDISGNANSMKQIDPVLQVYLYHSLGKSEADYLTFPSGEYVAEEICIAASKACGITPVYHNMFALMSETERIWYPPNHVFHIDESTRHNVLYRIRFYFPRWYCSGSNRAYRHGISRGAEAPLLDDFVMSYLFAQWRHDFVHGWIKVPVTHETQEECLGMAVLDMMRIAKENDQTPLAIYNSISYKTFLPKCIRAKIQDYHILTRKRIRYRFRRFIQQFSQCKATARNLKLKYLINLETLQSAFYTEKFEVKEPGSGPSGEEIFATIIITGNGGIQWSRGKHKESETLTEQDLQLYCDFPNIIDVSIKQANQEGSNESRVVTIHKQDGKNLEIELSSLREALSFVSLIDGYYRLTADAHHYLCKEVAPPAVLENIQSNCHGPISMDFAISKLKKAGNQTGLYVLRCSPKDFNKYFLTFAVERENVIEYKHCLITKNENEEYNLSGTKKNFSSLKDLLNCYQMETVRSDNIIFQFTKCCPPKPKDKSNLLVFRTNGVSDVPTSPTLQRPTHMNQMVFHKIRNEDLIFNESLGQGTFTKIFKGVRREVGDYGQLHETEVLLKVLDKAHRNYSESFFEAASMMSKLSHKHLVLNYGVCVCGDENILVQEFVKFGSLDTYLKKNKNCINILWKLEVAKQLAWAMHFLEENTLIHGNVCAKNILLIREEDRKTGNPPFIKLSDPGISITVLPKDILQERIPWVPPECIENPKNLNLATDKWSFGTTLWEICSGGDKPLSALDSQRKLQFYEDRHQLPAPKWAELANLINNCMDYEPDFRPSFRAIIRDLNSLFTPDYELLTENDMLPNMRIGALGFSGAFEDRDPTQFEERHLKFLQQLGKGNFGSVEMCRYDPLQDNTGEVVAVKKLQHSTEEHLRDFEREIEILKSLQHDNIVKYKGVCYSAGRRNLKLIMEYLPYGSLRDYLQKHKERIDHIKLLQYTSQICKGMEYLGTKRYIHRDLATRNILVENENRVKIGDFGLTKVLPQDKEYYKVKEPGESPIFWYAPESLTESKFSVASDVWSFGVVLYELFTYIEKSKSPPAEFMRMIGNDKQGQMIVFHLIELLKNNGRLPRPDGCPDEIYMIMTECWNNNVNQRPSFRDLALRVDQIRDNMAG

Sequence	phosphorylation enrichment
TFMKQYPKVFL [CNBD1_Y70]	0.591
VDTRAYLTSAT [MT-CO1_Y304_F305L]	0.603
MVTSGYKAKMI [EFR3A_Y447_T451M]	0.695
VTQEPYELFCE [CBL_Y368_Q367P_YF]	0.998
DFLSSYSAVKQ [OAT_Y85_N89K]	0.639
PKGIGYGQGAG [CSRP3_Y73]	0.474
TFEFKYPEGSS [TGM4_Y440_YF]	0.765
RAMRRYLERGE [ERBB3_Y680]	0.607
LAAAKYKLNVD [SMARCA2_Y1190]	0.42
AVAFVYFKSIG [ADGRL4_Y301_YF]	1.15
VPANRYDLLRL [FARSB_Y72_C76R]	0.54
TAGEPYHDIRF [BAP1_Y223]	0.64
EFGSGYPNDPK [RNASEH2A_Y210_D205E_YF]	0.797
EGLRRYLENGK [HLA-A_Y195_W191G]	0.6
GVPLGYPIKAP [ELN_Y206]	0.534
FETDFYQKGGK [INSR_Y1190_R1191Q_YF]	0.526
QTEAEYRFIYM [PTPN11_Y511_Q510E]	1.51
PGDGEYFTLQI [TP53_Y327_L323G]	4.13
PSPTKYSLSPS [RANBP2_Y785_R784K]	0.725
VAHAVYQAVLS [SMG1_Y549]	0.666
FFDANYDGKEF [MAPRE2_Y162_YF]	0.957
GADDSYFTARS [ZAP70_Y492_YF]	0.577
DTFDPYLDIAL [USP36_Y268_V271I_YF]	1.39
KLVQLYGVCTK [BTK_Y461]	0.773
FADPFYDFEIE [ZC3H18_Y372_YF]	1.12
EVVGRYSGHNA [MLH1_Y183_V185G]	0.397
EEKKKYFDTKI [CASP5_Y103_YF]	0.665
MDDDQYALLTT [EFCAB6_Y675]	0.996
NGTVTYAIIAG [CDH23_Y1672_V1675I]	0.989

What follows are sequences tested against MERTK (UniProt Q12866) in the same assay as above.
Sequence of MERTK (Q12866 whole entry, looked up): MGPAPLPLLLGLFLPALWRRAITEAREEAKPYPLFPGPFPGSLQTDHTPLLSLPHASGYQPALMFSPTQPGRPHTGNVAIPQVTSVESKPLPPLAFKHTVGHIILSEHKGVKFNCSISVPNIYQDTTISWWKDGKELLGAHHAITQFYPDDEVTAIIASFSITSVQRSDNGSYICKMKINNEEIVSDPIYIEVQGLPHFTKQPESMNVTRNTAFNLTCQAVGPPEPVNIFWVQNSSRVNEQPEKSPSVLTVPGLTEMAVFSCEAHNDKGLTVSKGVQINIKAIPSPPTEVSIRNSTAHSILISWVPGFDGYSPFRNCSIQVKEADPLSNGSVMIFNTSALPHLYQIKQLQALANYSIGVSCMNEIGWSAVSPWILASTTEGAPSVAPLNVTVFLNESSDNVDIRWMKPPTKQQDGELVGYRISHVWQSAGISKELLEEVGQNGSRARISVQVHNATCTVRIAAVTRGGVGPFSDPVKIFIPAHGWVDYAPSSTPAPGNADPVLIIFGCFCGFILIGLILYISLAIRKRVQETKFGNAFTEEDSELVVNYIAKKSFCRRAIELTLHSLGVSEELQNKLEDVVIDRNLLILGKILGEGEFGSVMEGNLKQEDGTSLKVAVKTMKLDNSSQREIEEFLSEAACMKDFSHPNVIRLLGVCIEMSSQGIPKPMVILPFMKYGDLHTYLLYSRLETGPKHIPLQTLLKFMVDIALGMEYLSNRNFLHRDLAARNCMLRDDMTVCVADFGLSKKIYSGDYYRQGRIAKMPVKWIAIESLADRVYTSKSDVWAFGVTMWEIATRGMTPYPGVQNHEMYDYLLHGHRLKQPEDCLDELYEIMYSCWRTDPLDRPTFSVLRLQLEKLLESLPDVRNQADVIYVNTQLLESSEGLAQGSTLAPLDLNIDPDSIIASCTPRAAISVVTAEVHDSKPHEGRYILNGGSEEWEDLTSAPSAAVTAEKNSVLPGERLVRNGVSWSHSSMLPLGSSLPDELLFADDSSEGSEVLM

Sequence	phosphorylation enrichment
TFMKQYPKVFL [CNBD1_Y70]	0.364
VDTRAYLTSAT [MT-CO1_Y304_F305L]	0.393
MVTSGYKAKMI [EFR3A_Y447_T451M]	0.414
VTQEPYELFCE [CBL_Y368_Q367P_YF]	0.592
DFLSSYSAVKQ [OAT_Y85_N89K]	0.273
PKGIGYGQGAG [CSRP3_Y73]	0.462
TFEFKYPEGSS [TGM4_Y440_YF]	0.497
RAMRRYLERGE [ERBB3_Y680]	0.61
LAAAKYKLNVD [SMARCA2_Y1190]	0.309
AVAFVYFKSIG [ADGRL4_Y301_YF]	0.471
VPANRYDLLRL [FARSB_Y72_C76R]	0.451
TAGEPYHDIRF [BAP1_Y223]	0.426
EFGSGYPNDPK [RNASEH2A_Y210_D205E_YF]	0.653
EGLRRYLENGK [HLA-A_Y195_W191G]	0.52
GVPLGYPIKAP [ELN_Y206]	0.419
FETDFYQKGGK [INSR_Y1190_R1191Q_YF]	0.421
QTEAEYRFIYM [PTPN11_Y511_Q510E]	0.641
PGDGEYFTLQI [TP53_Y327_L323G]	0.705
PSPTKYSLSPS [RANBP2_Y785_R784K]	0.473
VAHAVYQAVLS [SMG1_Y549]	4.22
FFDANYDGKEF [MAPRE2_Y162_YF]	0.424
GADDSYFTARS [ZAP70_Y492_YF]	0.406
DTFDPYLDIAL [USP36_Y268_V271I_YF]	0.527
KLVQLYGVCTK [BTK_Y461]	0.892
FADPFYDFEIE [ZC3H18_Y372_YF]	0.555
EVVGRYSGHNA [MLH1_Y183_V185G]	0.426
EEKKKYFDTKI [CASP5_Y103_YF]	0.332
MDDDQYALLTT [EFCAB6_Y675]	0.632
NGTVTYAIIAG [CDH23_Y1672_V1675I]	2.68

What follows are sequences tested on c-Abl (mouse) in the same assay as above.

Sequence	phosphorylation enrichment
TFMKQYPKVFL [CNBD1_Y70]	0.521
VDTRAYLTSAT [MT-CO1_Y304_F305L]	0.637
MVTSGYKAKMI [EFR3A_Y447_T451M]	0.552
VTQEPYELFCE [CBL_Y368_Q367P_YF]	0.817
DFLSSYSAVKQ [OAT_Y85_N89K]	0.46
PKGIGYGQGAG [CSRP3_Y73]	0.422
TFEFKYPEGSS [TGM4_Y440_YF]	0.734
RAMRRYLERGE [ERBB3_Y680]	0.615
LAAAKYKLNVD [SMARCA2_Y1190]	0.593
AVAFVYFKSIG [ADGRL4_Y301_YF]	0.938
VPANRYDLLRL [FARSB_Y72_C76R]	0.498
TAGEPYHDIRF [BAP1_Y223]	0.429
EFGSGYPNDPK [RNASEH2A_Y210_D205E_YF]	0.79
EGLRRYLENGK [HLA-A_Y195_W191G]	0.419
GVPLGYPIKAP [ELN_Y206]	0.485
FETDFYQKGGK [INSR_Y1190_R1191Q_YF]	0.523
QTEAEYRFIYM [PTPN11_Y511_Q510E]	1.26
PGDGEYFTLQI [TP53_Y327_L323G]	1.75
PSPTKYSLSPS [RANBP2_Y785_R784K]	0.553
VAHAVYQAVLS [SMG1_Y549]	1.14
FFDANYDGKEF [MAPRE2_Y162_YF]	0.611
GADDSYFTARS [ZAP70_Y492_YF]	0.401
DTFDPYLDIAL [USP36_Y268_V271I_YF]	0.727
KLVQLYGVCTK [BTK_Y461]	0.686
FADPFYDFEIE [ZC3H18_Y372_YF]	0.817
EVVGRYSGHNA [MLH1_Y183_V185G]	0.368
EEKKKYFDTKI [CASP5_Y103_YF]	0.657
MDDDQYALLTT [EFCAB6_Y675]	0.732
NGTVTYAIIAG [CDH23_Y1672_V1675I]	0.892
